One data set concerns T1, CCCc1ccc(O)c(OC)c1.
T1 construct: full length, 526 residues, C-terminal His6 tag (pBAD-EUGO-His6x), E. coli NEB10beta; covalent FAD; homodimer; mutants for crystals from His-SUMO fusion, tag cleaved
In words: purified protein. The note with it: 50 mM KPi pH 7.5, 10% v/v DMSO, 10 µM to 1 mM substrate, O2 co-substrate. It counts as biochemical, Rhodococcus jostii.

The subject of a further data set is T2, COc1cc(CO)ccc1O.
T2 construct: full length, 526 residues, C-terminal His6 tag (pBAD-EUGO-His6x), E. coli NEB10beta; covalent FAD; homodimer; mutants for crystals from His-SUMO fusion, tag cleaved
The data set is described as follows: purified protein. It counts as biochemical, Rhodococcus jostii. The note with it: 50 mM KPi pH 7.5, O2 co-substrate, 0.05 µM enzyme.

By Km is commonly meant the substrate concentration at which the rate is half of its maximum. One may read the kcat as the maximal rate divided by the concentration of active sites. For “EUGO (eugenol oxidase) (Rhodococcus jostii RHA1; A423M/D151E/H434Y/I445D/Q425S/S394V/S518P/S81H)”, in the data set on CCCc1ccc(O)c(OC)c1 (100 nM enzyme), the Km came out at 7.4 ± 0.4 µM and the kcat turned out to be 0.43 ± 0.007 s⁻¹. In addition, in the data set with COc1cc(CO)ccc1O, the Km was determined as 94.9 ± 7.8 µM and the turnover number (kcat) stood at 2.8 ± 0.07 s⁻¹.
As to “EUGO (eugenol oxidase) (Rhodococcus jostii RHA1; A423M/D151E/H434Y/I445D/S394V/S518P/S81H)”, in the data set on CCCc1ccc(O)c(OC)c1 (1.0 µM enzyme), the Km is listed as 3.0 ± 0.2 µM and the kcat is 0.08 ± 0.002 s⁻¹. Besides, in the data set with COc1cc(CO)ccc1O, the Km turned out to be 2.9 ± 0.2 µM and the turnover number (kcat) turned out to be 0.15 ± 0.002 s⁻¹.
For “EUGO (eugenol oxidase) (Rhodococcus jostii RHA1; A423M/H434Y/I445D/S394V/S518P/S81H)” the same measures were 3.4 ± 0.4 µM, 0.028 ± 0.0003 s⁻¹, 7.1 ± 0.6 µM and 0.075 ± 0.001 s⁻¹.
For the substance “EUGO (eugenol oxidase) (Rhodococcus jostii RHA1; A423M/H434Y/I445D/S518P/S81H)”, in the data set on COc1cc(CO)ccc1O, the Michaelis constant (Km) is on record as 177.6 ± 15.8 µM and the kcat was 4.8 ± 0.2 s⁻¹.

The values above are taken from publication PMC9684555, “Structure- and computational-aided engineering of an oxidase to produce isoeugenol from a lignin-derived compound” (Nature Communications, 2022).
